Assays:
[1] = molecular target: T1, AA amyloid in H2/IL-6 mice (Mus musculus, UniProt P05367); experiment: Dual-energy tissue biodistribution of 125I-SAP and 99mTc-p5+14 in AA mice; type: in vivo
T1 construct: Systemic distribution of AA amyloid in H2/IL-6 mice; from tissue; host or cells: organs of living H2/IL-6 Balb/c mice after induction with amyloid enhancing factor
T1 sequence (P05367 20-94 limits assumed): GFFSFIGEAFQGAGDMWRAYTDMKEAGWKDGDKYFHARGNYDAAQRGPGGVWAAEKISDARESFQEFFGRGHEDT
Protocol: Transgenic H2-L^d-huIL-6 Balb/c mice (H2/IL-6) constitutively express the human IL-6 transgene leading to chronic, severe inflammation and the overproduction of acute phase reactants, such as serum amyloid protein A, the precursor protein of systemic, inflammation-associated (AA) amyloidosis. Amyloid deposition was induced in 8–wk old female mice by IV injection of 100 μg of amyloid enhancing factor (AEF – an insoluble preparation of amyloid fibrils isolated from the spleen of mice with AA amyloidosis) suspended in sterile phosphate buffered saline (PBS)[34]. All animal procedures were performed in accordance with protocols approved by the University of Tennessee Animal Care and Use Committee. The University of Tennessee is an Association for Assessment and Accreditation of Laboratory Animal Care International (AAALAC-I) accredited institution.
(§1) Dual-energy comparative uptake experiments were performed in individual AA mice (5 wk post amyloid induction with AEF) and wild type mice (n = 5 per group). All SPECT/CT imaging was performed using an Inveon trimodality SPECT/PET/CT platform[37] (Siemens preclinical, Knoxville, TN). Image data were acquired and reconstructed using Inveon Acquisition Workplace (IAW) ver. 2.0.
For the comparison of ^125I-SAP and ^99mTc-p5+14, mice were administered ^125I-SAP (45 μCi, 8 μg) and 20 h thereafter received ^99mTc-p5+14 (110 μCi, 5 μg). Mice were euthanised 4 h after injection of the ^99mTc-p5+14. The image data for the low and high energy radionuclides were obtained sequentially by acquiring 60, 16-second projections in a total of 1.5 revolutions. A 1 mm-diameter aperture, five-pinhole (mouse whole body) collimator was used at 30 mm from the centre of the field of view. The image data in the appropriate energy window were reconstructed using a Maximum A Priori algorithm (MAP - 16 iterations, 6 subsets, β = 1) onto a matrix with x and y dimensions of 88 and z dimension of 312 and 0.5-mm isotropic voxels. Post hoc attenuation correction was then applied to reconstructed data using CT image data. Scatter correction was performed using a SPECT triple energy window (TEW) method.
(§2) For comparison of the p5+14 and p5 peptides, mice were injected IV in the lateral tail vein with a mixture of ^125I-p5+14 (150 μCi, ~3 μg) and ^99mTc-p5 (300 μCi, ~8 μg) and the mice euthanised by an overdose of isoflurane anaesthetic 1 h post injection. Tissues were harvested at necropsy for biodistribution measurements. Organs were also harvested from mice injected with ^125I-SAP and ^99mTc-p5+14 after SPECT/CT imaging. A small volume of tissue from each mouse was placed into a tared plastic vial and weighed. The radioactivity in the low and high energy windows (^125I and ^99mTc, respectively) was measured using an automated Wizard 3 gamma counter (1480 Wallac Gamma Counter, Perkin Elmer) with a crossover correction from the high to low energy channel of 4.6%, applied manually. Biodistribution data were expressed as percent injected dose per gram (%ID/g) of tissue.
Skewness and kurtosis statistics were used to assess the statistical assumption of normality for between-subjects comparisons and correlations. Any skewness or kurtosis statistic above an absolute value of 2.0 assumed a non-normal distribution. The assumption of homogeneity of variance was tested with Levene’s Test of Equality of Variances. Independent samples t-tests were used to compare p5+14 and SAP retention in amyloid laden organs (liver, spleen, pancreas, intestines and heart). Means and standard deviations were reported for the analyses. If a statistical assumption was violated, a non-parametric Mann-Whitney U test was used. Medians and interquartile ranges (IQR) were reported for non-parametric statistics. Pearson correlations were run to compare tissue biodistribution data (%ID/g) in all organs. […]

[2] = test system: amyloid-free organs of WT mice; experiment: Dual-energy tissue biodistribution in amyloid-free WT mice; type: in vivo, mouse; settings: n = 5, SAP 24 h and p5+14 4 h post injection
Protocol: as §1
For the comparison of ^125I-SAP and ^99mTc-p5+14, mice were administered ^125I-SAP (45 μCi, 8 μg) and 20 h thereafter received ^99mTc-p5+14 (110 μCi, 5 μg). Mice were euthanised 4 h after injection of the ^99mTc-p5+14. The image data for the low and high energy radionuclides were obtained sequentially by acquiring 60, 16-second projections in a total of 1.5 revolutions. […]
as §2, with “Tissues were harvested at necropsy for biodistribution measurements. Organs were also harvested from mice injected with ^125I-SAP and ^99mTc-p5+14 after SPECT/CT imaging. A small volume of tissue from each mouse was placed into a tared plastic vial and weighed.” left out

[3] = AA mice 5 wk post-AEF, n = 5, 125I-SAP 45 μCi, 8 μg, 24 h post injection, crossover-corrected

## 125I-SAP: purified human SAP radioiodinated with 125I
[1]; [3]
  Tissue biodistribution, heart, Mean ± SD: 0.7 ± 0.1 %ID/g
  Tissue biodistribution, intestine, Mean ± SD: 0.8 ± 1.1 %ID/g
  Tissue biodistribution, liver, Mean ± SD: 14.1 ± 3.5 %ID/g
  Tissue biodistribution, pancreas, Median (Interquartile range): 0.7 (0.5)[3] %ID/g
  Tissue biodistribution, spleen, Mean ± SD: 23.8 ± 3.5 %ID/g
[1]; AA mice, in each mouse studied, p < 0.001
  Uptake in the spleen as compared to 99mTc-p5+14: ~ 4 fold
[1]; AA mice, 125I-SAP, 24 h post injection
  Uptake by pancreatic AA amyloid: < 1 %ID/g
[2]
  Retention in amyloid-free organs: no retention
